In US20250144207A1, “COMBINATION THERAPY COMPRISING ANTI-CCR9 ANTIBODY AND VINCRISTINE FOR CANCER” (SUNROCK BIOPHARMA S.L., priority 2022, published 2025):

Assays:
MOLT4-GFP xenografts = experiment: Survival of NSG mice with MOLT4-GFP xenografts, SRB1 combined with chemotherapy agents; type: in vivo; details: for Median survival: NSG mice, MOLT4-GFP i.v., SRB1 or isotype 4 mg/kg i.p. x4 weekly, vincristine 0.6 mg/kg i.v. day 5, dexamethasone 50 μg/mouse/dose days 5-9; for # censored subjects / # deaths: same survival study, 10 animals/group
CCR9 = molecular target: T1, CCR9 (Homo sapiens, UniProt P51686); experiment: CCR9 binding in the presence of CCL25, measured by flow cytometry
T1 sequence (P51686 1-369): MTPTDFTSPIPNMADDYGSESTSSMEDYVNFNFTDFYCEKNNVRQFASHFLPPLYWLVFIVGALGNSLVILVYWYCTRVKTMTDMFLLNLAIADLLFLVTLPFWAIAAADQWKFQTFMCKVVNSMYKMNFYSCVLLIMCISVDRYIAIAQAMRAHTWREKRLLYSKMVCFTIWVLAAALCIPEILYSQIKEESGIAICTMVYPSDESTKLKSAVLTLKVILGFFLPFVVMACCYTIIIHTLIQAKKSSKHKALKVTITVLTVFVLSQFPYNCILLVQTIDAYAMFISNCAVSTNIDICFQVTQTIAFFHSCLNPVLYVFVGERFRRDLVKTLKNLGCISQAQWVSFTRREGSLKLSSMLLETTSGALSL
Text: Therefore, like “91R” and “92R”, the “SRB1” is preferred for use in the treatment of a condition in which CCL25 concentration may be elevated, including in the treatment of certain cancers as described in detail herein.

CCR9+ lymphocyte = experiment: Antibody mediated complement-dependent cytotoxicity (CDC); type: cell-based
Text: The present inventors have, for example, observed antibody mediated complement-dependent cytotoxicity (CDC) utilizing anti-CCR9 antibodies such as “91R”, “92R” and “SRB1” described above.

[1] = molecular target: T2, CCR9 (C-C chemokine receptor type 9) (human, UniProt P51686 1-369, limits assumed); experiment: CCR9 binding in the presence of CCL25; no protocol given
T2 construct: also called human chemokine receptor CCR9
T2 sequence (looked up): T1 sequence (P51686 1-369)

C[C@@H]1C[C@H]2[C@@H]3CCC4=CC(=O)C=C[C@]4(C)[C@@]3(F)[C@@H](O)C[C@]2(C)[C@@]1(O)C(=O)CO [DX, dexamethasone]
Median survival (MOLT4-GFP xenografts): 47.7 days | # censored subjects (MOLT4-GFP xenografts): 10 | # deaths (MOLT4-GFP xenografts): 10

CC[C@]1(O)C[C@H]2CN(CCc3c([nH]c4ccccc34)[C@@](C(=O)OC)(c3cc4c(cc3OC)N(C=O)[C@H]3[C@@](O)(C(=O)OC)[C@H](OC(C)=O)[C@]5(CC)C=CCN6CC[C@]43[C@@H]65)C2)C1 [VX, vincristine]
Median survival (MOLT4-GFP xenografts): 67.9 days | # censored subjects (MOLT4-GFP xenografts): 10 | # deaths (MOLT4-GFP xenografts): 10

B1: SRB1 anti-CCR9 antibody (antibody, V domains shown)
VH: EVQLVESGGGLVKPGGSLRLSCAASGFTFSKFWMNWVRQAPGKGLEWVGEIRLKSNNYATHYAESVKGRFTISRDDSKNTLYLQMNSLKTEDTAVYYCTSDGWFAYWGQGTLVTVSS
VL: DVQMTQSPSSLSASVGDRVTITCRSSQSLVHSNGNTYLNWYQQKPGKAPKLLIYKVSNRFSGVPSRFSGSGSGTDFTLTISSLQPEDFATYYCSQSTHFPRTFGGGTKVEIK
notes: also called CCR9-targeted antibody (SRB1)
CCR9 binding in the presence of the ligand CCL25 (CCR9): exhibit CCR9 binding in the presence of CCL25 | complement-dependent cytotoxicity (CDC) (CCR9+ lymphocyte): observed | Median survival (MOLT4-GFP xenografts): 66.2 days | survival, given as IC50 (MOLT4-GFP xenografts; SRB1 at 4 mg/kg vs Control (48 days)): 70 days | # censored subjects (MOLT4-GFP xenografts): 10 | # deaths (MOLT4-GFP xenografts): 10 | binding result [1]: binds
